Like-named read-outs stand apart in the source and are kept apart here. Starred links: 1 amine or outer side, 2 acyl side, 3 side chain; linkers in the order of their positions; H or OH if unused. Primed or numbered codes have the meaning given here. *: point of attachment. Kbt‑6‑CONH = ketobenzothiazole-6-CONH (amide link to Val), O=C(c1ccc2nc([*:1])sc2c1)[*:2]; kt = C-terminal ketothiazole, c1csc(*)n1; kt″ = ketothiazole, c1csc(*)n1 Some results are limits rather than exact numbers.

Experiment [1] addresses Ac-Ala-Arg-Leu-Arg-ACC.
Experiment [2] concerns the target Ac-Ala-Arg-Leu-P1-ACC, P1 = Gly (G).
Experiment [3] addresses Ac-Ala-Arg-Leu-P1-ACC, P1 = L-Ala (A).
The target in experiment [4] is Ac-Ala-Arg-Leu-P1-ACC, P1 = L-Asn (N).
The target of experiment [5] is Ac-Ala-Arg-Leu-P1-ACC, P1 = L-Asp (D).
Experiment [6] addresses Ac-Ala-Arg-Leu-P1-ACC, P1 = L-Gln (Q).
In experiment [7] the target is Ac-Ala-Arg-Leu-P1-ACC, P1 = L-Glu (E).
For experiment [8], the target named is Ac-Ala-Arg-Leu-P1-ACC, P1 = L-His (H).
Experiment [9] addresses Ac-Ala-Arg-Leu-P1-ACC, P1 = L-Ile (I).
The target in experiment [10] is Ac-Ala-Arg-Leu-P1-ACC, P1 = L-Leu (L).
Experiment [11] has as its target Ac-Ala-Arg-Leu-P1-ACC, P1 = L-Lys (K).
Experiment [12] has as its target Ac-Ala-Arg-Leu-P1-ACC, P1 = L-Met (M).
Experiment [13] deals with Ac-Ala-Arg-Leu-P1-ACC, P1 = L-Phe (F).
Experiment [14] concerns the target Ac-Ala-Arg-Leu-P1-ACC, P1 = L-Pro (P).
For experiment [15], the target named is Ac-Ala-Arg-Leu-P1-ACC, P1 = L-Ser (S).
Experiment [16] concerns the target Ac-Ala-Arg-Leu-P1-ACC, P1 = L-Thr (T).
The target of experiment [17] is Ac-Ala-Arg-Leu-P1-ACC, P1 = L-Trp (W).
The target in experiment [18] is Ac-Ala-Arg-Leu-P1-ACC, P1 = L-Tyr (Y).
The target of experiment [19] is Ac-Ala-Arg-Leu-P1-ACC, P1 = L-Val (V).
For experiment [20], the target named is Ac-Ala-Arg-Leu-Arg-ACC. This is another data set of the same source.
Experiment [21] concerns the target Ac-His(3Bom)-Agp-hLeu-Arg-ACC.
For experiment [22], the target named is Hepatocyte Growth Factor Activator (HGFA) serine protease domain, N-terminal His-tag, recombinant (Homo sapiens (Human)) (UniProt Q04756).
Experiment [23] deals with Recombinant human hepsin (4776-SE-010, R&D Systems), activated (human) (UniProt P05981).
Experiment [24] addresses T1, matriptase (Charles Craik, UCSF), recombinant (Homo sapiens (Human)) (UniProt Q9Y5Y6).
T1 sequence: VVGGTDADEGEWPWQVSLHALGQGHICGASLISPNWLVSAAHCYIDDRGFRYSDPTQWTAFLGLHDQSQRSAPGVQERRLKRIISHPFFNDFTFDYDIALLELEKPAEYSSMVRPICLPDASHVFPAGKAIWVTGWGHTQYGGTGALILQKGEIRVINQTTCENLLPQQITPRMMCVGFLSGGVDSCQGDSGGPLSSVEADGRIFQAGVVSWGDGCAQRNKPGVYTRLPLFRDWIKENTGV

Experiment [25] concerns the target Hepatocyte Growth Factor Activator (HGFA) serine protease domain, N-terminal His-tag, recombinant (Homo sapiens (Human)) (UniProt Q04756). The source holds these as a separate data set.
The target is the same in experiment [26]. The experiment is described as follows: fluorogenic inhibition assay.
Experiment [27] addresses T2, matriptase (Charles Craik, UCSF), recombinant (Homo sapiens (Human), UniProt Q9Y5Y6).
T2 sequence: T1 sequence
The experiment in a line: fluorogenic inhibition assay.

Experiment [28] addresses T3, Recombinant human hepsin (4776-SE-010, R&D Systems), activated (human, UniProt P05981). The experiment is described as follows: fluorogenic inhibition assay.
Experiment [29] deals with Factor Xa. The experiment in a line: selectivity inhibition assay.
The target in the next experiment is Trypsin. The experiment in a line: selectivity inhibition assay.
The target of experiment [30] is recombinant thrombin. The experiment in a line: selectivity inhibition assay.
The target of experiment [31] is Hepatocyte Growth Factor Activator (HGFA) serine protease domain, N-terminal His-tag, recombinant (Homo sapiens (Human)) (UniProt Q04756). The experiment in a line: fluorogenic inhibition assay. The source holds these as a separate data set.
For experiment [32], the target named is T2, matriptase (Charles Craik, UCSF), …. The experiment in a line: fluorogenic inhibition assay. This is another data set of the same source.
In experiment [33] the target is T3, Recombinant human hepsin (4776-SE-010, …). The experiment in a line: fluorogenic inhibition assay. The source holds these as a separate data set.
The target of experiment [34] is T2, matriptase (Charles Craik, UCSF), …. The experiment is described as follows: fluorogenic inhibition assay. The source holds these as a separate data set.
Experiment [35] deals with T3, Recombinant human hepsin (4776-SE-010, …). The experiment is described as follows: fluorogenic inhibition assay. This is another data set of the same source.
Experiment [36] deals with Factor Xa. The experiment in a line: chromogenic inhibition assay.
In experiment [37] the target is recombinant thrombin. The experiment is described as follows: chromogenic inhibition assay.
Experiment [38] addresses Hepatocyte Growth Factor Activator (HGFA) serine protease domain, N-terminal His-tag, recombinant (Homo sapiens (Human)) (UniProt Q04756). The experiment is described as follows: fluorogenic inhibition assay. This is another data set of the same source.

Take “Hepatocyte Growth Factor Activator (HGFA) serine protease domain, N-terminal His-tag, recombinant (from UniProt Q04756) (enzyme)”: the % activity, P1 position with Ac-Ala-Arg-Leu-Arg-ACC [1] came to 100%; in [2], 0%; in experiment [3] it was 0%; in experiment [4], 0%; in experiment [5], 0%; in [6], 0%. Besides, the % activity, P1 position came out at 0% in experiment [7]; 0% in experiment [8]; 0% in experiment [9]; 0% in [10]; 0.99% in experiment [11]; 0% in [12]. In addition, the % activity, P1 position in experiment [13] was determined as 0%; in experiment [14], 0%; in experiment [15], 0%; in [16] it was 0%; in experiment [17], 0.73%; in experiment [18], 0%. Besides, in experiment [19], the % activity, P1 position was found to be 0%. Besides, the kcat/KM with Ac-Agp-hArg-Leu-Arg-ACC was found to be 41300; with Ac-Ala-Arg-Leu-Arg-ACC [20] it was 3140; in experiment [21], 28100; with NH2-Leu-DTrp-Nle-Arg-ACC, 17700. Moreover, in the experiment with Boc-QLR-AMC, the Km of fluorogenic substrate worked out at 37 µM.

B1: Ac-KRLR(SEQ ID NO: 8)-kt (peptide)
peptide: Ac-KRLR-kt
SMILES: CC(=O)N[C@@H](CCCCN)C(=O)N[C@@H](CCCNC(=N)N)C(=O)N[C@@H](CC(C)C)C(=O)N[C@@H](CCCNC(=N)N)C(=O)c1nccs1
For B1, the IC50 of enzyme inhibition in [22] came out at 225 nM; in experiment [23] it was 5 nM; in [24], 14 nM. Moreover, in experiment [25], the EC50 of inhibition of c-MET phosphorylation (Y1234/1235) in MDA-MB-231 cells treated with pro-HGF/HGFA reactions came out at 180 nM. The figures for the Ki in [26], in experiment [27] and in experiment [28] were 12 nM, 1.1 nM and 0.57 nM, respectively.
Turning to Ac-KQLR-{Kbt‑6‑CONH-Val-NH2} [Ac-KQLR(SEQ ID NO: 1)-Kbt-Val-NH2], the inhibition constant Ki in experiment [26] came out at 12 nM; in the experiment with Factor Xa [29], 66 nM; with Trypsin it was 0.07 nM; with recombinant thrombin [30], 3210 nM; in experiment [31], 13 nM; in experiment [34], 6.98 nM. For the same molecule, the Ki in [35] was determined as 0.29 nM. Also, the fold change of potency against Ac-KQLR-kbt (7) in experiment [31] was determined as 2 fold. The “fold decrease of activity against Ac-KQLR-kbt (7)” value in [32] is greater than 10 fold; in experiment [33] it was greater than 3 fold.

B2: Ac-KQLR(SEQ ID NO: 1)-kt (peptide)
peptide: Ac-KQLR-{kt″}
SMILES: CC(=O)N[C@@H](CCCCN)C(=O)N[C@@H](CCC(N)=O)C(=O)N[C@@H](CC(C)C)C(=O)N[C@@H](CCCNC(=N)N)C(=O)c1nccs1
In the case of B2, the values for the IC50 of enzyme inhibition in [22], in experiment [23] and in [24] were 445 nM, 2 nM and 5 nM, respectively. Moreover, the Ki in the experiment with Factor Xa [36] is 170 nM; with recombinant thrombin [37] it was greater than 20000 nM; in experiment [26], 70 nM; in [38] it was 53 nM; in experiment [27], 1.6 nM; in [28] it was 0.19 nM.

B3: Ac-SWLR(SEQ ID NO: 17)-kt (peptide)
peptide: Ac-SWLR-kt
SMILES: CC(=O)N[C@@H](CO)C(=O)N[C@@H](Cc1c[nH]c2ccccc12)C(=O)N[C@@H](CC(C)C)C(=O)N[C@@H](CCCNC(=N)N)C(=O)c1nccs1
Regarding B3, the IC50 of enzyme inhibition in [22] amounted to 435 nM; in experiment [23] it was 9 nM; in experiment [24], 175 nM. The inhibition constant Ki in the experiment with Factor Xa [36] was determined as 759 nM; with recombinant thrombin [37], 3700 nM; in experiment [26], 63 nM; in experiment [38] it was 66 nM; in experiment [32], 66 nM; in experiment [27] it was 69 nM. In addition, the Ki in [28] came to 1.2 nM.
